Experimental data published in patent US20250019450A1 (DIAGONAL THERAPEUTICS, published 2025).
Changes are numbered by the printed parent chain. Each block holds one binder with its values, some of them ahead of it.

Legend:
[1] = biological target: human IL-12 receptor (IL-12Rβ1 and IL-12Rβ2) on HEK-Blue IL-12 cells (human, UniProt P42701 24-662; Q99665 24-862); assay: cell-based or functional assay
[2] = biological target: human IL-12Rβ1, Acro (BLI analyte) (human, UniProt P42701 24-545); assay: BLI (Octet), antibody on AHC tip
[3] = biological target: T1, human IL-12RB1 overexpressed on 293T cells (Example 2) (human, UniProt P42701 24-662); assay: FACS, hybridoma supernatant, 293T
T1 construct: whole, on cells

[4] = biological target: T2, cyno IL-12RB1 overexpressed on 293T cells (Example 2) (cyno, UniProt A0A2K5VWV1 24-662); assay: FACS, hybridoma supernatant, 293T
T2 construct: whole, on cells

[5] = biological target: T3, human IL-12Rβ1-his (Acro Biosystems), biotinylated (human, UniProt P42701 24-545, biotinylated); assay: ELISA, periplasmic extract
T3 construct: bought; captured on Neutravidin in the ELISA; also called Bio-huIL-12Rβ1-His

[6] = biological target: T4, human IL-12RB1 with C-terminal FLAG tag, transiently expressed on HEK-293T cells (human, UniProt P42701 24-662); assay: FACS, periplasmic extract, HEK-293T
T4 construct: whole, on cells

[7] = biological target: T5, cyno IL-12RB1 with C-terminal FLAG tag, transiently expressed on HEK-293T cells (cyno, UniProt A0A2K5VWV1 24-662); assay: FACS, periplasmic extract, HEK-293T
T5 construct: whole, on cells

[8] = biological target: T6, human IL-12RB2 with C-terminal HA tag, transiently expressed on HEK-293T cells (human, UniProt Q99665 24-862); assay: FACS, periplasmic extract, HEK-293T
T6 construct: whole, on cells; also called human IL-12Rβ2
T6 sequence (looked up): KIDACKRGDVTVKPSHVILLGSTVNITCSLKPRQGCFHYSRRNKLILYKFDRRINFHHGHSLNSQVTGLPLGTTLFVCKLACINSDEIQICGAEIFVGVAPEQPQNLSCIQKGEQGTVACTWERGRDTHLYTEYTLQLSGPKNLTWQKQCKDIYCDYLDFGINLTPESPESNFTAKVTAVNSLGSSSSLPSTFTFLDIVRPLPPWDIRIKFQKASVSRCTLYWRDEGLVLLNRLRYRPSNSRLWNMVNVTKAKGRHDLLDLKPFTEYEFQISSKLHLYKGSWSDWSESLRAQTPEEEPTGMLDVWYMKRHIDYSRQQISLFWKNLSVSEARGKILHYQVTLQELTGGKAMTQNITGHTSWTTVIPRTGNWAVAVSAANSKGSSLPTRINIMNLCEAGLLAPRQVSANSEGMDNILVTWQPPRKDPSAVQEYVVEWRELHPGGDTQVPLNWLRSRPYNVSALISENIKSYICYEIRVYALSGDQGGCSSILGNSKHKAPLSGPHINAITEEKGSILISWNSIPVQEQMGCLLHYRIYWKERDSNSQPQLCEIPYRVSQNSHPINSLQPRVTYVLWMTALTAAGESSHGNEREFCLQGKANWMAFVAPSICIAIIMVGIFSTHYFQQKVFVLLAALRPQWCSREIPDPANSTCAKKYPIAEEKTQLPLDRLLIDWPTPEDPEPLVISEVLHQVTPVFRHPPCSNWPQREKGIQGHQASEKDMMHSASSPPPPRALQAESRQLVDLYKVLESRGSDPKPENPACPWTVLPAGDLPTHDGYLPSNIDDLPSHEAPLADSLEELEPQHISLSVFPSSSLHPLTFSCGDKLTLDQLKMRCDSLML

[9] = biological target: T7, cyno IL-12RB2 with C-terminal HA tag, transiently expressed on HEK-293T cells (cyno, UniProt A0A2K5VNI7 24-860); assay: FACS, periplasmic extract, HEK-293T
T7 construct: whole, on cells; also called cyno IL-12Rβ2
T7 sequence: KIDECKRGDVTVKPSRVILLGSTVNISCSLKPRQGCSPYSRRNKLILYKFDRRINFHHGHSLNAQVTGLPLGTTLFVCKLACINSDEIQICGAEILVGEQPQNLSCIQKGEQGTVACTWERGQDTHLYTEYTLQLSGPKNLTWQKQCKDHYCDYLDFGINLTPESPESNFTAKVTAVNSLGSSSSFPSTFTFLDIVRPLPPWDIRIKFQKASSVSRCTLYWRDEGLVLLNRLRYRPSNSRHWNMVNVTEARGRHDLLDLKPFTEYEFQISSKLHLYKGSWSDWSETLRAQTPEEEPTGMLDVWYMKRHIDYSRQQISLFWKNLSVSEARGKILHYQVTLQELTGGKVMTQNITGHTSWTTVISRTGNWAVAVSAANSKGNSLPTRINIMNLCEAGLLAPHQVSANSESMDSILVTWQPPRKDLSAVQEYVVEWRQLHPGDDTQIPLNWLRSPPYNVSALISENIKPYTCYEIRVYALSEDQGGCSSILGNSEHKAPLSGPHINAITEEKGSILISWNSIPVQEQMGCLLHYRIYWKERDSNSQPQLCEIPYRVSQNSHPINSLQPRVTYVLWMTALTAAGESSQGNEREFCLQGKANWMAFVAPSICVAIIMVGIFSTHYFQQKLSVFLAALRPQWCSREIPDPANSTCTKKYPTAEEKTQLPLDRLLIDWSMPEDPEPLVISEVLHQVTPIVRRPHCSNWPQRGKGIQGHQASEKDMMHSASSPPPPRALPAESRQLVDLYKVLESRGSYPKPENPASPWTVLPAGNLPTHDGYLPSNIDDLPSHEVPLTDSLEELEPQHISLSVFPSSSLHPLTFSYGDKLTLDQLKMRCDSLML

EC50 [1]: 1.1e-09 M (implied)
Max Absorbance [1]: 0.9
Kd [2]: 6.06 nM
B1: DGL421 (bispecific antibody, human IgG1, lambda)
heavy 1: not shown
heavy 2: QVQLQESGPGLVKPSQTLSLTCTVSGGSITTNYYYWSWIRQPPGKGLEWMGAIAYSGSTYYSPSLKSRTSISRDTSKNQFTLQLSSVTPEDTAVYYCASGINFYSNYPTLNEYDYWGQGTQVTVEPKSSDKTHTCPPCPAPEAAGAPSVFLFPPKPKDTLMISRTPEVTCVVVDVSHEDPEVKFNWYVDGVEVHNAKTKPREEQYNSTYRVVSVLTVLHQDWLNGKEYKCKVSNKALPAPIEKTISKAKGQPREPQVCTLPPSRDELTKNQVSLSCAVKGFYPSDIAVEWESNGQPENNYKTTPPVLDSDGSFFLVSKLTVDKSRWQQGNVFSCSVMHEALHNRFTQKSLSLSPG
light: QTVVTQEPSFSVSPGGTVTLTCGLTSGSVSTSYYPSWYQQTPGQAPRTLIYSTYTRSSGVPDRFSGSILGNKAALTITGAQADDESDYYCVLYMGSGIWVFGGGTKLTVLGQPKAAPSVTLFPPSSEELQANKATLVCLISDFYPGAVTVAWKADSSPVKAGVETTTPSKQSNNKYAASSYLSLTPEQWKSHRSYSCQVTHEGSTVEKTVAPTECS
notes: 85801_10K15A x 190B2

FOB [8]: 1.64 fold
FOB [9]: 0.99 fold
B4: VHH211B2 (VHH)
VHH: QVQLVESGGGLVQAGNSLRLSCAASGRTFSSYVVGWFRQAPGKEREFVGRISWSGARTYYADSVKGRFTISRDNAKNTVYLQMNSLKPEDTAVYYCAADLKWEVLLSEHFEYWGQGTQVTVSS

FOB [8]: 1.21 fold
FOB [9]: 1.55 fold
B7: VHH277B2 (VHH)
VHH: QVQLVESGGGLVQLGDSLRLSCAASGRGFSSWTMAWFRQALGKRREFVAAITATGARTCSAESEGRFTISRDNAKNMVFLQMNSLKAEDTAVYYCAATEIAGWDPGMGDKYPYWGQGTQVTVSS

Fold over parental 293T [3]: 57 fold
Fold over parental 293T [4]: 21 fold
B8: 85801_10K15 (antibody, V domains shown)
VH: QITLKESGPTLVKPTQTLTLTCTFFGFSLNTGGVGVGWIRQPPGKALEWLTLIYWNDDKRYSPSLKSRLTITKDTSKNQVVLTMTNMDPVDTATYYCAHTLRWYHGFDIWGQGTMVTVSS
VL: QTVVTQEPSFSVSPGGTVTLTCGLTSGSVSTSYYPSWYQQTPGQAPRTLIYSTYTRSSGVPDRFSGSILGNKAALTITGAQADDESDYYCVLYMGSGIWVFGGGTKLTVL
notes: also called 85801_10K15A

OD450 nm [5]: 3.2
FOB [6]: 31 fold
FOB [7]: 24 fold
B10: VHH276B1 (VHH)
VHH: QVQLVESGGGLVQAGASLRLSCAASGRTFSSYAMGWFRQAPGKEREFVAAISGGTPNNIYYTNYKDAVRGRFTISRDNAKNTVYLQMSSLKPEDTAVYYCGATMGRYWNTGGYDYWGQGTQVTVSS

OD450 nm [5]: 0.144
FOB [6]: 105 fold
FOB [7]: 89 fold
B12: VHH263B1 (VHH)
VHH: EVQLVESGGGLVQAGGSLRLSCAASGSKFSFNAMGWYRQTPGKQRELVAIIINGDMINYADSVKGRFTISRDNAKNTMYLQMNSLKPEDTAVYYCKMTRYVYDYWGQGTQVTVSS

FOB [8]: 1.42 fold
FOB [9]: 1 fold
B13: VHH229B2 (VHH)
VHH: QVQLVESGGGLVQAGGSLRLSCAASGRTFSSYAMGWFRQAPGKEREFVSAISWNGGSRYYVESVEGRFTISRDNAKNTVYLQMNSLKPEDTAVYYCAASRIYTNYVARSYEYDDWGQGTQVTVSS

Further lines, the binder ahead of its results:

B2: 85801_04G19 (antibody, V domains shown)
VH: QVQLQESGPGLVKPSETLSLTCTVSGGSISSYYWSWIRQSAGKELEWIGRIYTSGSTIYNPSLKSRVTMSVDPSKNQFSLKLSSVTAADTAVYYCANSRSYPHDAFDIWGQGTMVTVSS
VL: DIQLTQSPSFLSASVGYRVTITCRASQGISSYLAWYQQKPGKAPQLLIYAASTLQSGVPSRFSGRGSGTEFTLTISSLQPEDFATYYCQQLNGYPFTFGPGTKVNIK
notes: also called 85801_04G19A
Fold over parental 293T [3]: 262 fold
Fold over parental 293T [4]: 116 fold

B3: VHH258B1 (VHH)
VHH: QVQLVESGGGLVQAGGSLRLSCAASGRTFSSYVMGWFRQAPGQEREFVAAIMRNGIMTYYADSVKGRFTISRDNAKNTVYLQMNTLKPDDTAVYYCAAASRVGVSISQSSSYTSWGQGTQVTVSS
OD450 nm [5]: 3.3
FOB [6]: 183 fold
FOB [7]: 91 fold

B5: VHH321B1 (VHH)
VHH: QVQLVESGGGLVQPGGSLRLSCIASGFTFSDYAMKWVRRPPGKGLEWVSVIDSEGPTIKYSDAVRGRFTISRDNAKNTLYLQMNSLKPEDTAVYYCAKSNGGSAFSSVLYTDRGQGTQVTVSS
OD450 nm [5]: 1.06
FOB [6]: 119 fold
FOB [7]: 93 fold

B6: VHH241B2 (VHH)
VHH: B7 VHH with E99G, G102S, G108A, P112T
FOB [9]: 2.37 fold

B9: VHH216B2 (VHH)
VHH: QVQLVESGGGLVQPGGSLRLSCATSEHTFGTYRMGWFRQAPGKEREFVAGISWTGQTTYYAASVKGRFAISKDNAKNTVYLQMNTLKSDDTAVYYCAVETNNLGRWDRPSEYDYWGQGTQVTVSS
FOB [9]: 0.98 fold

B11: VHH245B1 (VHH)
VHH: QVQLQESGGGLVQAGGSLRLSCAASGSIASINAMGWYRQAPGKQRDFVARIQLSGQTSYAHSVRGRFTISRDNAKNTVYLQMNNLKPEDTAVYVCAASNTGSLYGLRNYWGQGTQVTVSS
OD450 nm [5]: 3.12
FOB [6]: 78 fold
FOB [7]: 36 fold
